Data published in the supplement of paper PMC9170038.

These sequences were tested on MS2 coat protein (assay: apparent KD of MS2 coat protein; higher = weaker reporter binding). Conditions: Eterna round: R107; input ligand: theophylline 2 mM.
Protocol: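 RNA-MaP round R107: designed RNA switches with theophylline, tryptophan, arginine or FMN aptamers are transcribed on-chip within common flanks. They are titrated with SNAP-549-labelled MS2 coat protein in RNA-MaP buffer (100 mM Tris pH 7.5, 80 mM KCl, 4 mM MgCl2), without ligand or with the indicated ligand. Median apparent KD per design.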

Sequence | apparent KD of MS2 coat protein [nM]
ACACAUGACAGAAGGAGCGGAAUGAACACACAUGAGGAUCACCCAUGUUUUUUUUGUGUUUUCCAGGUAGGUCGCUGACAUGAGG [#20 Same State - Arginine B] | 9.54
GUAUAGUCUCGAAGGAGCGUCACAUGAGGAUCACCCAUGUACAUGAGGAUCACCCAUGUGUGGCAGGUAGGUCGCGAGCUAUACC [Exclusion Arginine B GF8] | 281
AUGGCGUUGGUGAGGCGGUUUAAUGGCGAUACCAGCGUGGAAACACGCCCUUGGCAGCGCCAAAACAUGAGGAUCACCCAUGUUA [Budejovice] | 132
UGGCGAGAAGGAAGGAGCGUCAGCUGAGUUACAUGAGGAUCACCCAUGUUUUACAUUGUGUGACAGGUAGGUCGCCUUCUGCCCU [SS-ArgB20] | 16.9
AUAACAUGAGGAUCACCCAUGUAUUGGUUACGAGGACCGGUACGGCCGCCACUCGUAUUAUAGUGGUAUUUUGUUUAUAUGAUAA [JR_Nu_TrtptoA_Sub019] | 18.4
UAUCCACAUGAGGAUCACCCAUGUUAGGAAGGAGCGGUGAAUGAACCAGGUAGGUCGCCUAGCUGAGGACCGUCGAUGGAUUCGU [Exclusion - Arginine A (Freestyle 16)] | 28.2
UCAAUACAGUCGGCCGCCACUGUAACCAAACCUACAUACCAACAUGAGGAUCACCCAUGUUUAUACAGGACCGGGACCUCUAUGA [theeternabot_sameState_MS2_Trp_B_10] | 46.4
AUACAUGAGGAUCACCCAUGUGAUGGCCGGCGAGGACCGGUACGGCCGCCACUCGUGAUCCGUCCCGAGAGCAAAGCUCUCGACA [Raatala] | 1080
UGGGUAGCAUAGAUUGAUAGUUAAACUGAAGGAGCGAGAAUAAUCUCAGGUAGGUCGCAGACAUGAGGAUCACCCAUGUAGAUGG [Same State Arginine A GF16] | 88.8
AAAUAAAUACAUGAGGAUCACCCAUGUGAAGGAGCGCCCGUUAGGGCAGGUAGGUCGCACAUGAACUCCAAAGUGCAAAAGCACA [ArgEX 17 #OpenEnded] | 27.4
UGGGUCGGAUGAGUAAAUUGUCGGACUCAUCGAGGACCGGUACGGCCGCCACUCGGUUGUACAUGAGGAUCACCCAUGUCAGGGU [#1 Same State - Tryptophan A Attempt #17 (HarryS)] | 749
UUCAGACAUGAGGAUCACCCAUGUACUGAAGGAGCGGAUAAAUAUCCAGGUAGGUCGCAGUAUUGAGGGUCUACUUCCAGUCUUU [Reoruser] | 9.47

Same assay, conditions: Eterna round: R107; input ligand: tryptophan 2.4 mM

Sequence | apparent KD of MS2 coat protein [nM]
GGCGUCGGGCGAAGGAGCGUGAAGACAUGAGGAUCACCCAUGUAGAGGCCCGAACAGGGUUCGCAGGUAGGUCGCGCGCGGUGCC [#1 Same State - Arginine B Attempt #6 (HarryS)] | 15.6
AAGGUGAUCCCAGAUACCAGCCUAACAUGAGGAUCACCCAUGUUUGGGACGAAAGUCCCAGGCCCUUGGCAGCUGGGUUGCCAAG [SSTheo B #17] | 185
ACAUGAGGAUCACCCAUGUCAGGGCACGAUACCAGCUGAUCCGAUGGCCCUUGGCAGCGUUACGUGUGGUCAUGAGGAUCACCCG [pjbmullin] | 64.7
GUUAUGGACCUGGAUACCAGCUGGUACAAGGGCGGUCUACAUGAGGAUCACCCAUGUGUCAGCCCUUGGCAGCCAGCAACCGGCA [Teraus] | 8.95
ACAUGAGGAUCACCCAUGUAAUGGCACGAUACCAGCUGAUCCCGUGGCCCUUGGCAGCGUCCGGUGUGGUCCGCCGGGUUGGACC [HHHMULLIN] | 36.2
AAUAGCAUGAGGAUCACCCAUGUAAAAGAUACCAGAGUGAUGAUCCUCCCUUGGCAGCUUAACGCUGAUUGAUUACAAUCAGCGA | 34.4
GUCAGUAGAACAGAUACCAGUCAAAAGCUGUGAUCUCAUAACAUGAGGAUCACCCAUGUUGACCCUUGGCAGCUGUGGGCGAGGG [#19 Exclusion-TheophyllineB] | 19.1
GGUACAUGAGGAUCACCCAUGUAUGCGAGCCGAGGACCGGUACGGCCGCCACUCGCUUAACAUGAGGAUCACCCAUGUUUCUCGG [SSTA DOUBLE!!! :-D #15] | 108
GCCAAAAUACCCGAUACCAGUAUUAAUAGCACAACCUCACACAUGAGGAUCACCCAUGUAUACCCUUGGCAGCGGCCUAACAUAA [theeternabot_exclusion_MS2_Theo_B_49] | 36.9
AAUUGGGUUGGUGAGGUGGUUGGAGGCGAUACCAGCGUGGAAACACGCCCUUGGCAGCGCCAGGACAUGAGGAUCACCCAUGUAA [Praha] | 205
UACAUACAUGAGGAUCACCCAUGUUGCGAUACCAGCGAAAGAGACCGCCCUUGGCAGCGCUCAUUUAGUUCCAUUCUUGAUCGAA [theeternabot_sameState_MS2_Theo_A_4] | 14.7
UGGGUCGGAUGAGUAAAUUGUCCGACGUAUCGAGGACCGGUACGGCCGCCACUCGGUUGUACAUGAGGAUCACCCAUGUCAGGGU [#1 Same State - Tryptophan A Attempt #16 (HarryS)] | 206
AUAUUUAACGGAAGGAGCGCGGAUAAUAAAGUGGGUAAACAUGAGGAUCACCCAUGUAAACCGCAGGUAGGUCGCCGAUAUAUAU [AstrosEXyARgB#7] | 41.4
UCGCCCGGGUCGGCCGCCACUGAGGUGAUGUGACAUGAGGAUCACCCAUGUUGUCAUGUGGCACAUAGGACCGGGACCCGGGCGA [Exclusion - Tryptophan B Attempt #3 (HarryS)] | 22.5
UGUAUGUGAUCUGAUACCAGAGUGACGCGAAAGCGAUAACCUGAGGAUCACCCUGGUAAACUCCCUUGGCAGCAGAUCGCAUACU | 79.7
ACACAUGACAGAAGGAGCGGAAUGAACACACAUGAGGAUCACCCAUGUUUUUUUUGUGUUUUCCAGGUAGGUCGCUGACAUGAGG [#20 Same State - Arginine B] | 8.95
GUAUAGUCUCGAAGGAGCGUCACAUGAGGAUCACCCAUGUACAUGAGGAUCACCCAUGUGUGGCAGGUAGGUCGCGAGCUAUACC [Exclusion Arginine B GF8] | 312
AUGGCGUUGGUGAGGCGGUUUAAUGGCGAUACCAGCGUGGAAACACGCCCUUGGCAGCGCCAAAACAUGAGGAUCACCCAUGUUA [Budejovice] | 16.4
UGGCGAGAAGGAAGGAGCGUCAGCUGAGUUACAUGAGGAUCACCCAUGUUUUACAUUGUGUGACAGGUAGGUCGCCUUCUGCCCU [SS-ArgB20] | 13.5
UAUCCACAUGAGGAUCACCCAUGUUAGGAAGGAGCGGUGAAUGAACCAGGUAGGUCGCCUAGCUGAGGACCGUCGAUGGAUUCGU [Exclusion - Arginine A (Freestyle 16)] | 18.4
AUACAUGAGGAUCACCCAUGUGAUGGCCGGCGAGGACCGGUACGGCCGCCACUCGUGAUCCGUCCCGAGAGCAAAGCUCUCGACA [Raatala] | 50.3
CCCAAGCCAGCUGAUACCAGUGACGUGGUCAGAAUGUGCGACAUGAGGAUCACCCAUGUACACCCUUGGCAGCAGUAGAACGGUU [theeternabot_exclusion_MS2_Theo_B_47] | 14.9
UGGGUAGCAUAGAUUGAUAGUUAAACUGAAGGAGCGAGAAUAAUCUCAGGUAGGUCGCAGACAUGAGGAUCACCCAUGUAGAUGG [Same State Arginine A GF16] | 68
AAAUAAAUACAUGAGGAUCACCCAUGUGAAGGAGCGCCCGUUAGGGCAGGUAGGUCGCACAUGAACUCCAAAGUGCAAAAGCACA [ArgEX 17 #OpenEnded] | 25.4
AUGUAGCCGUCGACUGUACCUUAUGCCGAUACCAGCUACCCGUGAAGCCCUUGGCAGCGGGAAACAUGAGGAUCACCCAUGUCAG [theeternabot_exclusion_MS2_Theo_A_13] | 24.7
UUCAGACAUGAGGAUCACCCAUGUACUGAAGGAGCGGAUAAAUAUCCAGGUAGGUCGCAGUAUUGAGGGUCUACUUCCAGUCUUU [Reoruser] | 9.82
